Test results: patent US20110046887A1, “METHOD FOR ASSESSING PATHWAY PRODUCT LEVELS” (priority 2006, published 2011)

Assays:
[1] = Bayesian deconvolution of 24-hr pituitary-hormone concentration profiles (secretion and elimination parameters); format: in vivo, human; settings: 24-hr 10-min sampled profile, ACTH, LH young, GH person
Protocol: The experimentalist requires an automated procedure by which to simultaneously detect pulse times and estimate secretion/kinetic features. […] In each case, discrete blood sampling (i.e., the withdrawal lasting 5-10 sec) was performed every 10 min for 24 hr. [Integrative sampling (continuous withdrawal) yields a time-integrated or flattened version of the impulse, thereby underestimating absolute peak values and overestimating interpulse valleys.] If the set (Y1, Y2, . . . , Yn) denotes observed hormone concentrations, n would be 145 for 10-min sampling over 24 hr. […] One would like to find values (a,b) so that, for a specified probability, e.g., 0.95, one can make the following probability statement:
Assuming that pulse-onset times are given by ℑm={T^1, T^2 . . . , T^m}, Keenan and Veldhuis give a model to estimate secretory dynamics conditional on pulse times (Keenan & Veldhuis, 1998; Keenan et al., 2000; Keenan et al., 1998). The primary components are basal and pulsatile secretion, a flexible secretory-burst shape, random effects on burst mass, biexponential elimination kinetics and combined experimental uncertainty in sample collection, processing and assay. We suppose that M, the amount of hormone secreted in the j^th burst (mass per unit distribution volume), is the sum of a finite amount of minimally available stores, a linear function of hormone accumulation over the preceding interpulse interval, and a random effect allowing for biological variability in individual burst mass:
In the present Bayesian approach, an a priori (prior) probability distribution is placed on the parameter space: Θ×ℑ, where ℑ={ℑN, ℑN-1, . . . , ℑp} in Eq. [16] and Θ denotes the parameter set in Eq. [14]. The prior density on Θ×ℑ is assumed to be a product: π×λ, with a uniform prior on Θ, π(θ)∝ to a Constant. The prior on ℑ is the Akaike Information Criterion (AIC) penalty for the number of pulse times m, λ(ℑm)∝exp(−m). […] Measured data Y=(Y1, Y2, . . . , Yn)′ are then incorporated via a likelihood function (Eq. [15]), resulting in the a posteriori (posterior) probability distribution on Θ×ℑ:
The algorithm of the present paper utilizes a mathematically justified procedure for simulating from the joint (Θ×ℑ) posterior distribution (Eq. [18]). The basic idea is that, for a given hormone concentration profile, one generates an array of (e.g. 100) simulations from the posterior distribution, which allows one then to make probabilistic statements about the parameters of pulse times, secretion and elimination.
total basal secretion as: n×β0, and total pulsatile as the difference. Repeated sampling of (θ,ℑm), and calculation of total pulsatile secretion (for each), produces a probability histogram approximating the posterior distribution for total pulsatile secretion, given an observed concentration profile. […] Specifically, in reference to Eq. [9]
Histograms are based on 100 simulations from the joint posterior distribution.

[2] = injected GnRH, i.v. bolus; cited from earlier work
[3] = test system: Pulsatile LH secretion; test: Expected pulsatile LH secretion in KTCZ/DEX paradigm with Te addback; format: in vivo, human
Protocol: Volunteers (Forty (40) healthy men ages 18-80 years) arrived at a testing facility by 1730 hours and stayed two nights. At 1800-2000 hours, two i.v. catheters were placed in (contralateral) antecubital veins to allow concomitant saline or Te infusion and blood sampling. […] This regimen can reduce the concentration of total Te from 530±61 to 85±13 ng/dL overnight. […] Visits were greater than or equal to two weeks apart. The order of the four visits was prospectively randomized, and interventions were double-blind.
To enforce pulsatile negative feedback, 12 consecutive pulses of Te or saline was given i.v. on top of the basal infusion. […] To monitor LH and Te concentrations, blood samples (1.25 mL) were withdrawn every 10 min for 16 hours beginning at 0800 hours, FIG. 7.
Te was infused at a constant rate of 1.0 mg/24 hours from midnight (MN) until MN. There were 12 superimposed pulses each at a session-defined dose of zero (saline), 167, 333 or 500 μg delivered over 6 min every two hours from MN to 2200 hours. Resultant total (basal+pulsatile) Te infusion rates were equivalent to 1, 3, 5 and 7 mg/24 hours, thus spanning sub-, mid- and high-physiological Te production rates in healthy young men (normal interquartile range 4-6 mg/day) (Veldhuis et al., Physiological Basis of Aging and Geriatrics, 3rd edition, 213-231, Boca Raton, CRC Press (2003); Veldhuis, Reproductive Endocrinology, 4th edition, 622-631, Philadelphia, W.B. Saunders Co., (1999)). Crystalline testosterone was dissolved in 100% ethanol, diluted to less than 0.3% ethanol in normal saline, and microfiltered for i.v. infusion after sterility and pyrogen testing.
Estimates based on data described elsewhere (Zwart et al., J. Clin. Endocrinol. Metab. 82:2062-2069 (1997)) indicate that statistical power can exceed 90% to detect an effect of age that explains 33% or more of the variability in Te feedback sensitivity if 40 subjects are studied. The predicted slope±SD of feedback sensitivity regressed on age is (×10^−3) 1.5±0.25. […] Because an a priori postulate is that age reduces feedback sensitivity, a test of significance can be one-tailed; and because both sensitivity and efficacy can be examined, the experiment-wise critical value is P≦0.025.

[4] = oral dosing in healthy men; cited from earlier work
[5] = test system: total Te; settings: overnight after oral KTCZ 1000 mg with DEX 0.75 mg at midnight; reduced from 530±61; cited from earlier work
[6] = 0.05 quantile of posterior distribution
[7] = 0.25 quantile of posterior distribution
[8] = 0.50 quantile of posterior distribution
[9] = 0.75 quantile of posterior distribution

adrenocorticotropin hormone (SYSMEHFRWGKPVGKKRRPVKVYPNGAEDESAEAFPLEF; Corticotropin; UniProt P01189 138-176, looked up) [ACTH, endogenous pituitary hormone measured in blood of a person]
Slow Half-Life [1, 6]: 9 min
Slow Half-Life [1, 7]: 11 min
Slow Half-Life [1, 8]: 15 min
Slow Half-Life [1, 9]: 19 min
Slow Half-Life ([1]; 0.95 quantile of posterior distribution): 25 min

gonadotropin-releasing hormone [GnRH]
first-phase half-life [2]: 3 to 7 min
second-phase half-life [2]: 35 to 50 min

growth hormone [GH]
Slow Half-Life [1, 6]: 28 min
Slow Half-Life [1, 7]: 31 min
Slow Half-Life [1, 8]: 31 min
Slow Half-Life [1, 9]: 31 min

C[C@]12CC[C@H]3[C@@H](CCC4=CC(=O)CC[C@@]43C)[C@@H]1CC[C@@H]2O [Te, testosterone]
Pulsatile LH secretion ([3]; oldest subjects, 1 mg Te addback, free Te decrement 15 ng/dL): 2.0 IU/L/min
Pulsatile LH secretion ([3]; oldest subjects, 7 mg Te addback (start of expected increase)): 0.65 IU/L/min
Pulsatile LH secretion ([3]; youngest subjects, 1 mg Te addback, free Te decrement 17 ng/dL): 3.5 IU/L/min
Pulsatile LH secretion ([3]; youngest subjects, 7 mg Te addback (start of expected increase)): 0.50 IU/L/min

CC(=O)N1CCN(c2ccc(OCC3COC(Cn4ccnc4)(c4ccc(Cl)cc4Cl)O3)cc2)CC1 (centres unmarked) [KTCZ, ketoconazole]
half-life [4]: six
concentration of total Te [5]: 85 ± 13 ng/dL
